Data taken from patent publication US20100247549A1.

Tests used:
[1] = target: Envelope glycoprotein (E) of antigenic variant DENV-4 v4 (Leu for Pro at position 176 in E) (dengue virus type 4) (UniProt P09866)
[2] = target: Envelope glycoprotein (E) of parental DENV-4 (FRhL) (dengue virus type 4) (UniProt P09866)
[3] = target: Envelope glycoprotein (E) of antigenic variant DENV-4 v4 (Leu for Pro at position 176 in E) (dengue virus type 4) (UniProt P09866); test: cell-based or functional assay
[4] = target: Envelope glycoprotein (E) of antigenic variant DENV-4 v3 (Glu for Lys at position 174 in E) (dengue virus type 4) (UniProt P09866); test: cell-based or functional assay
[5] = target: Fc receptors on K562 cells; test: cell-based or functional assay

With “Humanized IgG 5H2 ΔD (IgG1 5H2 with a 9-amino-acid deletion, positions 231-239, at the N-terminus of the CH2 domain) (antibody)” the Kd [1] was 0.32 nM, the Kd [2] was 0.23 nM and the PRNT50 titer [3] was 0.5 µg/mL. For the same substance, the PRNT50 titer [4] was > 10 µg/mL.
“IgG 1A5 ΔA (replacement amino acids at 327, 330 and 331 from the Fc of IgG4) (from UniProt P01857 1-330) (antibody)” was tested, and the enhancing activity of DENV-4 infection in K562 cells, % of cells infected [5] was 37.6%.
In the case of “IgG 1A5 ΔB (replacement amino acids at 233-236 from the Fc of IgG2) (from UniProt P01857 1-330) (antibody)”, the enhancing activity of DENV-4 infection in K562 cells, % of cells infected [5] is reported as 24%.
“IgG 1A5 ΔC (replacements of both variants ΔA and ΔB) (from UniProt P01857 1-330) (antibody)” gave an enhancing activity of DENV-4 infection in K562 cells, % of cells infected [5] of 18.8%.
